Results taken from patent publication US20240342215A1 (Regeneron, published 2024).

B1: scFv-based CAR targeting human BCMA (SEQ ID NO: 101) (other)
chain: DIVLTQSPPSLAMSLGKRATISCRASESVTILGSHLIHWYQQKPGQPPTLLIQLASNVQTGVPARFSGSGSRTDFTLTIDPVEEDDVAVYYCLQSRTIPRTFGGGTKLEIKGSTSGSGKPGSGEGSTKGQIQLVQSGPELKKPGETVKISCKASGYTFTDYSINWVKRAPGKGLKWMGWINTETREPAYAYDFRGRFAFSLETSASTAYLQINNLKYEDTATYFCALDYSYAMDYWGQGTSVTVSSAAATTTPAPRPPTPAPTIASQPLSLRPEACRPAAGGAVHTRGLDFACDIYIWAPLAGTCGVLLLSLVITLYCKRGRKKLLYIFKQPFMRPVQTTQEEDGCSCRFPEEEEGGCELRVKFSRSADAPAYQQGQNQLYNELNLGRREEYDVLDKRRGRDPEMGGKPRRKNPQEGLYNELQKDKMAEAYSEIGMKGERRRGKGHDGLYQGLSTATKDTYDALHMQALPPR
notes: Chimeric antigen receptor on transduced T cells; also called anti-BCMA CAR; BCMA scFv CAR
B2: VHH-TCR with a VHH added to the TRB separated by a marsupial mu linker (LEKT); CD33.VHH-mLNK-TRB-P2A-TRA (SEQ ID NO: 91) (TCR)
TCR beta: EVQLVESGGGEVQPGGSLRLSCAASRSSGIDVMGWYRQAPGKERELVAEISGVGDTNYAASLADRFTVSRDNAKNTVYLQMSSLRAEDTAVYYCNAHSFLDLVGAWGQGTLVTVKPLEKTDSGVTQTPKHLITATGQRVTLRCSPRSGDLSVYWYQQSLDQGLQFLIQYYNGEERAKGNILERFSAQQFPDLHSELNLSSLELGDSALYFCASSGGDGDEQFFGPGTRLTVLEDLKNVFPPEVAVFEPSKAEIAHTQKATLVCLATGFYPDHVELSWWVNGKEVHSGVSTDPQPLKEQPALNDSRYCLSSRLRVSATFWQNPRNHFRCQVQFYGLSENDEWTQDRAKPVTQIVSAEAWGRADCGITSASYHQGVLSATILYEILLGKATLYAVLVSALVLMAMVKRKDSRG
TCR alpha: AQKITQTQPGMFVQEKEAVTLDCTYDTSDPSYGLFWYKQPSSGEMIFLIYQGSYDQQNATEGRYSLNFQKARKSANLVISASQLGDSAMYFCAMSGGYTGGFKTIFGAGTRLFVKANIQNPDPAVYQLRDSKSSDKSVCLFTDFDSQTNVSQSKDSDVYITDKTVLDMRSMDFKSNSAVAWSNKSDFACANAFNNSIIPEDTFFPSSDVPCDVKLVEKSFETDTNLNFQNLLVIVLRILLLKVAGFNLLMTLRLWSS
B3: VHH-TCR with a VHH added to the TRB separated by a mu linker+G4S; CD33.VHH-mLNK.1xG4S-TRB-P2A-TRA (SEQ ID NO: 92) (TCR)
TCR beta: EVQLVESGGGEVQPGGSLRLSCAASRSSGIDVMGWYRQAPGKERELVAEISGVGDTNYAASLADRFTVSRDNAKNTVYLQMSSLRAEDTAVYYCNAHSFLDLVGAWGQGTLVTVKPLEKTGGGGSDSGVTQTPKHLITATGQRVTLRCSPRSGDLSVYWYQQSLDQGLQFLIQYYNGEERAKGNILERFSAQQFPDLHSELNLSSLELGDSALYFCASSGGDGDEQFFGPGTRLTVLEDLKNVFPPEVAVFEPSKAEIAHTQKATLVCLATGFYPDHVELSWWVNGKEVHSGVSTDPQPLKEQPALNDSRYCLSSRLRVSATFWQNPRNHFRCQVQFYGLSENDEWTQDRAKPVTQIVSAEAWGRADCGITSASYHQGVLSATILYEILLGKATLYAVLVSALVLMAMVKRKDSRG
TCR alpha: B2 TCR alpha
B4: VHH-TCR with a VHH added to the TRA separated by a mu linker (LEKT)+G4S; TRB-P2A-CD33.VHH-mLNK.1xG4S-TRA (SEQ ID NO: 94) (TCR)
TCR beta: DSGVTQTPKHLITATGQRVTLRCSPRSGDLSVYWYQQSLDQGLQFLIQYYNGEERAKGNILERFSAQQFPDLHSELNLSSLELGDSALYFCASSGGDGDEQFFGPGTRLTVLEDLKNVFPPEVAVFEPSKAEIAHTQKATLVCLATGFYPDHVELSWWVNGKEVHSGVSTDPQPLKEQPALNDSRYCLSSRLRVSATFWQNPRNHFRCQVQFYGLSENDEWTQDRAKPVTQIVSAEAWGRADCGITSASYHQGVLSATILYEILLGKATLYAVLVSALVLMAMVKRKDSRG
TCR alpha: EVQLVESGGGEVQPGGSLRLSCAASRSSGIDVMGWYRQAPGKERELVAEISGVGDTNYAASLADRFTVSRDNAKNTVYLQMSSLRAEDTAVYYCNAHSFLDLVGAWGQGTLVTVKPLEKTGGGGSAQKITQTQPGMFVQEKEAVTLDCTYDTSDPSYGLFWYKQPSSGEMIFLIYQGSYDQQNATEGRYSLNFQKARKSANLVISASQLGDSAMYFCAMSGGYTGGFKTIFGAGTRLFVKANIQNPDPAVYQLRDSKSSDKSVCLFTDFDSQTNVSQSKDSDVYITDKTVLDMRSMDFKSNSAVAWSNKSDFACANAFNNSIIPEDTFFPSSDVPCDVKLVEKSFETDTNLNFQNLLVIVLRILLLKVAGFNLLMTLRLWSS
B5: MAGEA4-reactive, HLA-A2-restricted TCR embedded with tandem VHHs targeting human CD33 and CLL1; TRB-P2A-CLL1-CD33.VHH-mLNK.1xG4S-TRA (SEQ ID NO: 97) (TCR)
TCR beta: B4 TCR beta
TCR alpha: EVQLVESGGGEVQPGGSLRLSCAASGFLFSIYDMNWYRQAPGKEREWVAGITNNGYSTAYAESVKGRFTISRDNAKNTIYLQMSSLRAEDTAVYYCHADLTKAYDVEYAWGQGTLVTVKPGGGGSGGGGSEVQLVESGGGEVQPGGSLRLSCAASRSSGIDVMGWYRQAPGKERELVAEISGVGDTNYAASLADRFTVSRDNAKNTVYLQMSSLRAEDTAVYYCNAHSFLDLVGAWGQGTLVTVKPLEKTGGGGSAQKITQTQPGMFVQEKEAVTLDCTYDTSDPSYGLFWYKQPSSGEMIFLIYQGSYDQQNATEGRYSLNFQKARKSANLVISASQLGDSAMYFCAMSGGYTGGFKTIFGAGTRLFVKANIQNPDPAVYQLRDSKSSDKSVCLFTDFDSQTNVSQSKDSDVYITDKTVLDMRSMDFKSNSAVAWSNKSDFACANAFNNSIIPEDTFFPSSDVPCDVKLVEKSFETDTNLNFQNLLVIVLRILLLKVAGFNLLMTLRLWSS
notes: also called CD33-CLL1-TCR; CD33-CLL1 TCR
B6: MAGEA4-reactive, HLA-A2-restricted TCR embedded with an scFv targeting human BCMA and a 2xG4S linker between the scFv and Va; TRB-P2A-BCMA.scFv-2xG4S-TRA (SEQ … (TCR)
TCR beta: B4 TCR beta
TCR alpha: DIVLTQSPPSLAMSLGKRATISCRASESVTILGSHLIHWYQQKPGQPPTLLIQLASNVQTGVPARFSGSGSRTDFTLTIDPVEEDDVAVYYCLQSRTIPRTFGGGTKLEIKGSTSGSGKPGSGEGSTKGQIQLVQSGPELKKPGETVKISCKASGYTFTDYSINWVKRAPGKGLKWMGWINTETREPAYAYDFRGRFAFSLETSASTAYLQINNLKYEDTATYFCALDYSYAMDYWGQGTSVTVSSGGGGSGGGGSAQKITQTQPGMFVQEKEAVTLDCTYDTSDPSYGLFWYKQPSSGEMIFLIYQGSYDQQNATEGRYSLNFQKARKSANLVISASQLGDSAMYFCAMSGGYTGGFKTIFGAGTRLFVKANIQNPDPAVYQLRDSKSSDKSVCLFTDFDSQTNVSQSKDSDVYITDKTVLDMRSMDFKSNSAVAWSNKSDFACANAFNNSIIPEDTFFPSSDVPCDVKLVEKSFETDTNLNFQNLLVIVLRILLLKVAGFNLLMTLRLWSS
notes: also called scFv-TCR; BCMA ScFv TCR
B7: VHH-TCR with a VHH added to the TRA separated by a 2xG4S; TRB-P2A-CD33.VHH-2xG4S-TRA (SEQ ID NO: 96) (TCR)
TCR beta: B4 TCR beta
TCR alpha: EVQLVESGGGEVQPGGSLRLSCAASRSSGIDVMGWYRQAPGKERELVAEISGVGDTNYAASLADRFTVSRDNAKNTVYLQMSSLRAEDTAVYYCNAHSFLDLVGAWGQGTLVTVKPGGGGSGGGGSAQKITQTQPGMFVQEKEAVTLDCTYDTSDPSYGLFWYKQPSSGEMIFLIYQGSYDQQNATEGRYSLNFQKARKSANLVISASQLGDSAMYFCAMSGGYTGGFKTIFGAGTRLFVKANIQNPDPAVYQLRDSKSSDKSVCLFTDFDSQTNVSQSKDSDVYITDKTVLDMRSMDFKSNSAVAWSNKSDFACANAFNNSIIPEDTFFPSSDVPCDVKLVEKSFETDTNLNFQNLLVIVLRILLLKVAGFNLLMTLRLWSS
notes: also called VHH-TCR with 2G4S; VHH-TCR with two G4Ss
B8: engineered dual-targeting TCR (VHH-TCR): MAGEA4-reactive, HLA-A2-restricted TCR embedded with a VHH targeting human CD33; TRB-P2A-CD33.VHH-mLNK-TRA (SEQ ID NO: … (TCR)
TCR beta: B4 TCR beta
TCR alpha: EVQLVESGGGEVQPGGSLRLSCAASRSSGIDVMGWYRQAPGKERELVAEISGVGDTNYAASLADRFTVSRDNAKNTVYLQMSSLRAEDTAVYYCNAHSFLDLVGAWGQGTLVTVKPLEKTAQKITQTQPGMFVQEKEAVTLDCTYDTSDPSYGLFWYKQPSSGEMIFLIYQGSYDQQNATEGRYSLNFQKARKSANLVISASQLGDSAMYFCAMSGGYTGGFKTIFGAGTRLFVKANIQNPDPAVYQLRDSKSSDKSVCLFTDFDSQTNVSQSKDSDVYITDKTVLDMRSMDFKSNSAVAWSNKSDFACANAFNNSIIPEDTFFPSSDVPCDVKLVEKSFETDTNLNFQNLLVIVLRILLLKVAGFNLLMTLRLWSS
B9: VHH-TCR with a VHH added to the TRA separated by a 1xG4S; TRB-P2A-CD33.VHH-1xG4S-TRA (SEQ ID NO: 95) (TCR)
TCR beta: B4 TCR beta
TCR alpha: EVQLVESGGGEVQPGGSLRLSCAASRSSGIDVMGWYRQAPGKERELVAEISGVGDTNYAASLADRFTVSRDNAKNTVYLQMSSLRAEDTAVYYCNAHSFLDLVGAWGQGTLVTVKPGGGGSAQKITQTQPGMFVQEKEAVTLDCTYDTSDPSYGLFWYKQPSSGEMIFLIYQGSYDQQNATEGRYSLNFQKARKSANLVISASQLGDSAMYFCAMSGGYTGGFKTIFGAGTRLFVKANIQNPDPAVYQLRDSKSSDKSVCLFTDFDSQTNVSQSKDSDVYITDKTVLDMRSMDFKSNSAVAWSNKSDFACANAFNNSIIPEDTFFPSSDVPCDVKLVEKSFETDTNLNFQNLLVIVLRILLLKVAGFNLLMTLRLWSS
notes: also called VHH-TCR with 1G4S; VHH-TCR with one G4S

Experiments:
[1] = molecular target: T1, PE labeled BCMA Fc reagent (AcroBio) (UniProt Q02223 1-54, PE label); assay: flow cytometry; PE labeled BCMA Fc staining of transduced T cells
T1 construct: not shown: Fc part of the bought reagent
T1 sequence (looked up): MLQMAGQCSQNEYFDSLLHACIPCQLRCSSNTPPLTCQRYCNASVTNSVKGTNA
Source text: T cells were interrogated for cell surface CAR expression using flow cytometry. T cells were stained using a PE labeled BCMA Fc reagent (AcroBio). […] IL2 secretion of scFv-TCR was greater than anti-BCMA CAR in coculture with medium and low BCMA expressing cell lines (FIG. 21C). […] For Live-cell imaging by IncuCyte was used to analyze tumor cell growth of HT1080.BCMA stably transduced with red reporter. The HT1080.BCMA cells grew in the presence of UTD T cells and MAGEA4 TCR-T cells.

[2] = molecular target: human CD33 on tumor cells (A549.CD33; A549 electroporated with CD33 mRNA; HL-60, Kasumi1, OCI-AML3) (human, UniProt P20138 18-364); assay: cell-based or functional assay
human CD33 on tumor cells (A549.CD33; A549 electroporated with CD33 mRNA; HL-60, Kasumi1, OCI-AML3), sequence (P20138 18-364): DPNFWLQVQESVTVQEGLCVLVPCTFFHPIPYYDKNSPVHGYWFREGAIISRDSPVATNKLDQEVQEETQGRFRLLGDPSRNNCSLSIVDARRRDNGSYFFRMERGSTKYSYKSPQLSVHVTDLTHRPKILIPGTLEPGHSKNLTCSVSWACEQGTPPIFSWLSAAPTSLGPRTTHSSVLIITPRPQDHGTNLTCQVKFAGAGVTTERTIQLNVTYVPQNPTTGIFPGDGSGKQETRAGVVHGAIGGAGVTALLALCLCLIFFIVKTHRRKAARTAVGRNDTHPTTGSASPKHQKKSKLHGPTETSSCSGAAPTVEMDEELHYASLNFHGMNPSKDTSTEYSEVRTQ

[3] = molecular target: MAGEA4 peptide presented by HLA-A2 on tumor cells (A549 transduced with MAGEA4 and HLA-A2; A549 pulsed with …); assay: cell-based or functional assay
[4] = molecular target: T2, His labeled CD33-Fc reagent (Acros) (UniProt P20138 18-259); assay: flow cytometry; CD33-Fc staining of transduced T cells, APC labeled streptavidin secondary
T2 construct: Secondary staining was with APC labeled streptavidin; not shown: Fc part and His label of the bought reagent
T2 sequence (P20138 18-259): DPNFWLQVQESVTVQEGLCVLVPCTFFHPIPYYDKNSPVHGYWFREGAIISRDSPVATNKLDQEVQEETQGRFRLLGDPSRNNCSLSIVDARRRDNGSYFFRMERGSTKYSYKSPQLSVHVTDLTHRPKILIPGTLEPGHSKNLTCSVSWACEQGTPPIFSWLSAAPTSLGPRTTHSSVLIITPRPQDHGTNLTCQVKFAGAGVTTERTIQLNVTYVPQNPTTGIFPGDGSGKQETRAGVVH

| Binder | interferon gamma production [2] | binding result [4] | other results |
| --- | --- | --- | --- |
| B1 |  |  | binding result [1]: binds |
| B2 | > 2 fold |  |  |
| B3 | > 2 fold |  |  |
| B4 | > 2 fold |  | interferon gamma production [3]: ~3 fold |
| B5 |  | binds |  |
| B6 |  |  | binding result [1]: binds |
| B7 |  | binds |  |
| B8 |  |  | interferon gamma production [3]: ~3 fold |
| B9 |  | binds |  |
